Data from paper PMC6628623, “Effects of Destruxin A on Silkworm’s Immunophilins” (Toxins, 2019).
Where a SMILES comes first, the peptide text is derived from it. [ ]: non-standard residue; d: D form. dLac(3-vinyl) = C=CC[C@@H](O)C(=O)O; NMeV = CN[C@H](C(=O)O)C(C)C; NMeA = CN[C@@H](C)C(=O)O; βAla = NCCC(=O)O

Legend:
[1] = target: Bmo.3174 (predicted B. mori cell division cycle 5-like protein, BmCDC5), DNA-binding-domain fusion (Bombyx mori (silkworm)); experiment: two-hybrid; insect two-hybrid (I2H) in Spodoptera frugiperda Sf-9 cells co-transfected with AD, DBD and PIE-Luc vectors; luciferase read-out (lumen value) against untransfected Sf-9 cells (CK, 40); 27 °C
[2] = target: T1, BmPPI (Bombyx mori, UniProt Q1HQ20); experiment: bio-layer interferometry, His-tagged protein on Ni-NTA biosensor; type: binding
T1 construct: cyclophilin superfamily
T1 sequence (Q1HQ20 1-171): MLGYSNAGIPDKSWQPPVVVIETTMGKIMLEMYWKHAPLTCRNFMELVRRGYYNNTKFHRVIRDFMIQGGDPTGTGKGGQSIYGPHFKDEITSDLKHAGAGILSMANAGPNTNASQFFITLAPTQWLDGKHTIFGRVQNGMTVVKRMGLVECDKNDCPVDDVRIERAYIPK
Source text: bio-layer interferometry, His-tagged protein on Ni-NTA biosensor on BmPPI

Row | lumen value (luciferase, I2H) [1] | Compound | Kd [2]
1 | 580 | peptidyl-prolyl cis-trans isomerase (BmPPI), activation-domain fusion (natural protein) | 
2 |  | C=CC[C@H]1OC(=O)CCNC(=O)[C@H](C)N(C)C(=O)[C@H](C(C)C)N(C)C(=O)[C@H]([C@@H](C)CC)NC(=O)[C@@H]2CCCN2C1=O [DA, Destruxin A] (cyclo(I[NMeV][NMeA][βAla][dLac(3-vinyl)]P)) | 1980 µM
